Sequences and labels used below:
B1: 342 Fab′ (Fab, V domains shown)
VH: EVQLVESGGGLVQPGGSLRLSCAVSGFSSTNYHVHWVRQAPGKGLEWMGVIWGDGDTSYNSVLKSRFTISRDTSKNTVYLQMNSLRAEDTAVYYCARQLTHYYVLAAWGQGTLVTVSS
VL: DIQMTQSPSSLSASVGDRVTITCRASEDLYYNLAWYQRKPGKAPKLLIYDTYRLADGVPSRFSGSGSGTDYTLTISSLQPEDFASYYCQQYYKFPFTFGQGTKVEIKR
B2: humanized 342 Fab, graft gL4gH1 (Fab, V domains shown)
VH: B1 VH
VL: B1 VL
B3: soluble human CD154 protein (extracellular domain) (ligand)
chain: GDQNPQIAAHVISEASSKTTSVLQWAEKGYYTMSNNLVTLENGKQLTVKRQGLYYIYAQVTFCSNREASSQAPFIASLCLKSPGRFERILLRAANTHSSAKPCGQQSIHLGGVFELQPGASVFVNVTDPSQVSHGTGFTSFGLLKL
notes: also called sCD154; recombinant extracellular domain of human CD154
B4: anti-CD154 antibody 338 (Fab, V domains shown)
VH: QVQLTESGPGLVQPSQTLSLTCTVSGFSLTSHHISWVRQPPGKGLEWVGVMWNDGGTLYNSALKSRPSISRDTSKSQVFLKMSSLQTEDTATYYCARGKMHYYVLDAWGQGASVTVS
VL: DIQMTQSPASLSASLGETVTIECRTSEDIYSNLAWYRQRPGKSPQLLIYDTNRLADGVPSRFSGSGSGTQYSLKINSLQSEDVASYFCQHYSNFPWTFGGDTKLELK
B5: anti-CD154 antibody 381 Fab′ (Fab, V domains shown)
VH: EVPLVESGGGLVQPGRSMKLSCVASGFTFSDYYMAWVRQAPKKGLEWVASISYEGSSTYYGDSVKGRFTVSRDIAKSTLYLQMHSLKSEDTAIYYCARHDDSPGYYFDYWGQGVMVTVS
VL: DIQMTQSPTSLSASLGETVSIECLAGEDISNVLAWYQQKSGGSPQLLIYAANRLQDGVPSRFSGSGSGTRYSLKISGMRPEDEADYFCQQTFRYPLTFGSGTKLELK
B6: chimeric 342 Fab′ (unlabeled 342 Fab′ of FIG. 29C) (Fab, V domains shown)
VH: QVQLKESGPGLVQPSETLSLTCTVSGFSSTNYHVHWVRQPPGKSLEWMGVIWGDGDTSYNSVLKSRLSITRDTSRSQVFLKMSSLQTEDTATYYCARQLTHYYVLAAWGQGASVTVS
VL: DIQMTQSPASLSASLGETVTVECRASEDLYYNLAWYQRKPGNSPQLLIYDTYRLADGVPSRFSGSGSGTQYSLKINTLPSGDVASYFCQQYYKFPFTFGSGTKLELK
notes: also called ch342 Fab

Like-named read-outs stand apart in the source and are kept apart here.

Assay [1] has as its target T1, CD154 expressed on D1.1 Jurkat cells (UniProt P29965 1-261, limits assumed).
T1 sequence (looked up): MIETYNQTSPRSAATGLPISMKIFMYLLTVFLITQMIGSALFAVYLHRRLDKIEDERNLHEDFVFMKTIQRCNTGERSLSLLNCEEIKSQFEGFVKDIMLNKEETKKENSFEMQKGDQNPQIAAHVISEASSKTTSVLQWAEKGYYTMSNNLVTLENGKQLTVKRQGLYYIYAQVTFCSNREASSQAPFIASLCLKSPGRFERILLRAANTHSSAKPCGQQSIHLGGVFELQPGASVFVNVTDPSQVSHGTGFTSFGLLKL
The experiment in a line: cell-based or functional assay.

Assay [2] concerns the target T2, CD40:sCD154 complex (human, UniProt P25942 21-193, limits assumed).
T2 construct: also called CD40:CD154 complex; not shown: human Fc (hFc)
The experiment in a line: Biacore (SPR): CD40hFc captured, ECD bound, then buffer or Fab injected; concentration not given (Example 10). Background: SPR reads the build-up and loss of mass on a sensor chip optically.

Assay [3] has as its target T3, Myc-tagged CD154 (UniProt P29965 116-261, limits assumed).
T3 construct: Captured on the ELISA plate by anti-Myc antibody 9E10; The order of tag and CD154 is not known; also called CD40L; not shown: Myc tag
T3 sequence (looked up): B3 chain
The assay is described as follows: ELISA: Myc-tagged CD154 captured on anti-Myc antibody 9E10, biotin 342 Fab' titrated, streptavidin-HRP detection (Example 14). As for the experimental part: In this assay, anti-Myc antibody 9E10 was coated onto an ELISA plate. Myc-tagged CD154 was captured by this antibody. […] The plate was washed and the amount of biotinylated 5c8 Fab bound was determined using streptavidin HRP as a secondary. The signal was graphed and fit using a either a one site binding hyperbola or a two site binding hyperbola curve fit in Prism software (Graph Pad).
A titration of biotin 5c8 Fab′ on CD154 to determine the appropriate concentration for cross-blocking analysis was also performed (FIG. 29B).

The target in assay [4] is T1, CD154 expressed on D1.1 Jurkat cells. The experiment in a line: flow cytometry: inhibition of the binding of hCD40-mFc-PE to CD154-expressing D1.1 Jurkat cells by serially diluted antibody (Example 5). As for the experimental part:
(§1) A flow cytometry-based assay was used to assess the binding of labeled CD40 to CD154-expressing D1.1 cells. D1.1 Jurkat cells (American Type Culture Collection) were maintained in RPMI 1640 medium (Gibco, 31870-025)) containing 10% (v/v) fetal calf serum (FCS), 2 mM glutamine (Invitrogen, 23030024), 1 mM sodium pyruvate (Invitrogen, 11360-039), 1% (v/v) D-(+)-glucose (Sigma, G8769) & 10 mM HEPES (Sigma, H0887). At time of assay, 100,000 D1.1 cells were incubated in 100 μL RPMI 1640 medium+10% FCS, in the presence or absence of serially diluted anti-CD154 antibody for 15 minutes at room temperature. 5 μL of a 1:75 dilution of hCD40-mFc-PE (Alexis Corp, ANC-504-050) was then added and incubated for a further 30 minutes at room temperature. After washing twice in phosphate-buffered saline (PBS) containing 1% (w/v) bovine serum albumin (BSA fraction V, Serologicals Proteins Inc, 81-068-5) and 0.02% (w/v) sodium azide (BDH, 103692K), cells were resuspended in 200 μL PBS/1% BSA/0.02% sodium azide and flow cytometry performed on a Becton Dickinson FACScan. The values for geometric mean fluorescence (FL2) were assessed in all cases.

The target in assay [5] is B3. The assay is described as follows: Biacore (SPR): antibody or fragment captured on immobilized anti-human IgG (Fc- or Fab'-specific) F(ab')2, recombinant extracellular domain of human CD154 titrated over it (Example 4). As for the experimental part: (§2) Catalogue Number: BR-1001-88, Biacore AB, Uppsala, Sweden. Buffer stored at 4° C. Immobilization buffer is Acetate 5.0 (being 10 mM sodium acetate pH 5.0). Catalogue number: BR-1003-51, Biacore AB, Uppsala, Sweden. Buffer stored at 4° C. Ligand capture: Affinipure F(ab′)₂ fragment goat anti-human IgG, Fab′ fragment specific (Catalogue number: 109-006-097) or Fc fragment specific (Catalogue number: 109-006-098), Jackson ImmunoResearch Inc (Pennsylvania, USA). Reagents stored at 4° C. […] Analyte: Recombinant extracellular domain of human CD154. Material was prepared at 2 mg/mL (40 μM) in phosphate-buffered saline, stored at 4° C., and diluted in HBE-EP running buffer for the assays. […] Regeneration Solution: 40 mM HCl prepared by dilution with distilled water from an 11.6 M stock solution (BDH, Poole, England. Catalogue number: 101254H). 5 mM NaOH prepared by dilution with distilled water from a 50 mM stock solution. Catalogue number: BR-1003-58, Biacore AB, Uppsala, Sweden. Assay Method: BIA (Biamolecular Interaction Analysis) was performed using a Biacore® 3000 (Biacore AB). Affinipure F(ab′)₂ fragment goat anti-human IgG, Fc- or Fab′-fragment specific (Jackson ImmunoResearch) were immobilized on a CM5 Sensor Chip via amine coupling chemistry to a capture level of ≈6000 response units (RUs). HBS-EP buffer (10 mM HEPES pH 7.4, 0.15 M NaCl, 3 mM EDTA, 0.005% Surfactant P20, Biacore AB) was used as the running buffer with a flow rate of 10 μl/min. Anti-CD154 antibodies or Fab fragments were used at concentrations such that, once captured by the immobilized anti-human IgG-Fc (or anti-human IgG Fab′) surface, gave a signal of ≈200 RUs. Human CD154 was titrated over the captured antibody, at various concentrations. 90 μL of CD154 was injected over the surface (association phase), followed by a 240 second dissociation phase, all at a flow rate of 30 μl/min. […] Background subtraction binding curves were analyzed using the BIAevaluation software (version 3.2) following standard procedures. Kinetic parameters were determined from the fitting algorithm.

Assay [6] has as its target T1, CD154 expressed on D1.1 Jurkat cells. The assay is described as follows: flow cytometry competition binding assay: serially diluted antibody against biotinylated 342 Fab on CD154-expressing D1.1 Jurkat cells, streptavidin-R-phycoerythrin detection (Example 6). As for the experimental part: A flow cytometry-based assay was used to assess the binding of anti-CD154 antibody to CD154-expressing D1.1 cells. D1.1 Jurkat cells (American Type Culture Collection) were maintained in RPMI 1640 medium (Gibco, 31870-025) containing 10% (v/v) fetal calf serum (FCS), 2 mM glutamine (BioWhittaker, 17-605E) and […] (Mediatech, 30002107). […] The cells were washed three times in FACS buffer with centrifugation at 290×g for 3 minutes in between washes. A 1:500 dilution of streptavadin-R-phycoerythrin conjugate (Jackson Immunoresearch, 016-110-084) in […] FACS buffer was added and the cells were incubated for one hour at 4° C. The cells were washed once and fixed in PBS with 3% formaldehyde at room temperature for 10 minutes. The cells were resuspended in FACS buffer and run on a FacsCalibur (BD). The values for geometric mean fluorescence (FL2) were assessed in all cases.

In assay [7] the target is B3. The experiment in a line: Biacore; purified Fab captured on the chip, human CD154 extracellular domain as analyte.
The target in assay [8] is T4, CD40hFc (human CD40 fusion protein) (human, UniProt P25942 21-193, limits assumed).
T4 construct: not shown: human Fc (hFc)
T4 sequence (P25942 21-193 limits assumed): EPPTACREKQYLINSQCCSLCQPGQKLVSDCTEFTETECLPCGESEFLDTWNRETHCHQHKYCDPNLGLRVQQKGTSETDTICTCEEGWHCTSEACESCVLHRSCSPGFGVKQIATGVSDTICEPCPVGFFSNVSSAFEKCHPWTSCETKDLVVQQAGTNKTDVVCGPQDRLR
The experiment in a line: Biacore (SPR), sequential injections: CD40hFc captured, then soluble CD154 (ECD); concentrations not given (Example 10).

Assay [9] addresses T1, CD154 expressed on D1.1 Jurkat cells. The assay is described as follows: cell-based or functional assay. This is another data set of the same source.
Assay [10] has the same target. The assay is described as follows: flow cytometry: inhibition of the binding of hCD40-mFc-PE to CD154-expressing D1.1 Jurkat cells by serially diluted chimaeric Fab' (Example 5). As for the experimental part: as §1
The target of assay [11] is B3. The experiment in a line: Biacore (SPR): antibody or Fab' captured on immobilized anti-human IgG (Fc- or Fab'-specific) F(ab')2, recombinant extracellular domain of human CD154 titrated over it (Example 4); chimaeric Fab'. How it is done:
as §2

T2 sequence (P25942 21-193 limits assumed, one chain of several): as the sequence (P25942 21-193 limits assumed) above

In general, EC50 (read off the curve) refers to the concentration that produces a half-maximal response. Low values mean higher potency in that assay, high ones lower potency in that assay. Usually IC50 stands for the concentration that gives 50% inhibition. Read a high IC50 as weaker potency in that assay. As usually defined, the Kd is the constant that tells how readily two partners part at equilibrium. B1: the “IC50 of inhibition of ICAM-1 (CD54) upregulation on CD40-expressing Ramos B cells co-cultured with CD154-expressing D1.1 Jurkat cells” value in assay [1] came to 40 ng/mL. Further, in assay [2], the binding result was “no binding”. Moreover, in [3], the “EC50 (read off the curve)” value is approximately 0.1 nM. Moreover, the values for the IC50 in [4] and in assay [6] were 0.012 µg/mL and 0.024 nM, respectively. Also, the dissociation constant Kd in [5] was determined as 0.028 nM.

The term koff denotes the rate constant with which the complex falls apart. The low end stands for slow dissociation, the high end for fast dissociation. What is called kon is the rate constant with which the complex forms. A higher kon goes with faster complex formation. In [7], B2 gave a Kd of 4.55 pM, a koff of 6.97e-05 s⁻¹ and a kon of 1.53e+07 M⁻¹ s⁻¹.

Take B3: the binding result in [8] is “binds”.

On to B4, for which, in assay [9], the “IC50 of inhibition of ICAM-1 (CD54) upregulation on CD40-expressing Ramos B cells co-cultured with CD154-expressing D1.1 Jurkat cells” value amounted to 192 ng/mL. Besides, in [10], the IC50 worked out at 6 ng/mL. The Kd in assay [11] is 0.015 nM.

With B5, the “IC50 of inhibition of ICAM-1 (CD54) upregulation on CD40-expressing Ramos B cells co-cultured with CD154-expressing D1.1 Jurkat cells” value in [9] worked out at 100 ng/mL. This molecule also showed an IC50 in assay [10] of 22 ng/mL. Also, the Kd in assay [11] is 0.005 nM.

In the case of B6, the “IC50 of inhibition of ICAM-1 (CD54) upregulation on CD40-expressing Ramos B cells co-cultured with CD154-expressing D1.1 Jurkat cells” value in [9] was determined as 53 ng/mL. In addition, in assay [10], the IC50 is 8 ng/mL. Moreover, the Kd in assay [11] stood at 0.016 nM.

For the origin of these results see patent US20130045219A1 (UCB, published 2013).
